Measurements from IntAct's records for PubMed 16739988.

B1: Gem-associated protein 5 (Homo sapiens), Q8TEQ6 (parent)
chain: MGQEPRTLPPSPNWYCARCSDAVPGGLFGFAARTSVFLVRVGPGAGESPGTPPFRVIGELVGHTERVSGFTFSHHPGQYNLCATSSDDGTVKIWDVETKTVVTEHALHQHTISTLHWSPRVKDLIVSGDEKGVVFCYWFNRNDSQHLFIEPRTIFCLTCSPHHEDLVAIGYKDGIVVIIDISKKGEVIHRLRGHDDEIHSIAWCPLPGEDCLSINQEETSEEAEITNGNAVAQAPVTKGCYLATGSKDQTIRIWSCSRGRGVMILKLPFLKRRGGGIDPTVKERLWLTLHWPSNQPTQLVSSCFGGELLQWDLTQSWRRKYTLFSASSEGQNHSRIVFNLCPLQTEDDKQLLLSTSMDRDVKCWDIATLECSWTLPSLGGFAYSLAFSSVDIGSLAIGVGDGMIRVWNTLSIKNNYDVKNFWQGVKSKVTALCWHPTKEGCLAFGTDDGKVGLYDTYSNKPPQISSTYHKKTVYTLAWGPPVPPMSLGGEGDRPSLALYSCGGEGIVLQHNPWKLSGEAFDINKLIRDTNSIKYKLPVHTEISWKADGKIMALGNEDGSIEIFQIPNLKLICTIQQHHKLVNTISWHHEHGSQPELSYLMASGSNNAVIYVHNLKTVIESSPESPVTITEPYRTLSGHTAKITSVAWSPHHDGRLVSASYDGTAQVWDALREEPLCNFRGHRGRLLCVAWSPLDPDCIYSGADDFCVHKWLTSMQDHSRPPQGKKSIELEKKRLSQPKAKPKKKKKPTLRTPVKLESIDGNEEESMKENSGPVENGVSDQEGEEQAREPELPCGLAPAVSREPVICTPVSSGFEKSKVTINNKVILLKKEPPKEKPETLIKKRKARSLLPLSTSLDHRSKEELHQDCLVLATAKHSRELNEDVSADVEERFHLGLFTDRATLYRMIDIEGKGHLENGHPELFHQLMLWKGDLKGVLQTAAERGELTDNLVAMAPAAGYHVWLWAVEAFAKQLCFQDQYVKAASHLLSIHKVYEAVELLKSNHFYREAIAIAKARLRPEDPVLKDLYLSWGTVLERDGHYAVAAKCYLGATCAYDAAKVLAKKGDAASLRTAAELAAIVGEDELSASLALRCAQELLLANNWVGAQEALQLHESLQGQRLVFCLLELLSRHLEEKQLSEGKSSSSYHTWNTGTEGPFVERVTAVWKSIFSLDTPEQYQEAFQKLQNIKYPSATNNTPAKQLLLHICHDLTLAVLSQQMASWDEAVQALLRAVVRSYDSGSFTIMQEVYSAFLPDGCDHLRDKLGDHQSPATPAFKSLEAFFLYGRLYEFWWSLSRPCPNSSVWVRAGHRTLSVEPSQQLDTASTEETDPETSQPEPNRPSELDLRLTEEGERMLSTFKELFSEKHASLQNSQRTVAEVQETLAEMIRQHQKSQLCKSTANGPDKNEPEVEAEQPLCSSQSQCKEEKNEPLSLPELTKRLTEANQRMAKFPESIKAWPFPDVLECCLVLLLIRSHFPGCLAQEMQQQAQELLQKYGNTKTYRRHCQTFCM

Variants of: B1
Conditions: with if4e_human EIF4E

| effect of a mutation on the interaction | Variant |
| --- | --- |
| decreasing interaction | L270A;K271A |
| decreasing interaction | L997A;L998A |
| decreasing interaction | L265A |
| decreasing interaction | Y992A |
